From patent publication US20220098304A1 (JIANGSU HENGRUI MEDICINE, published 2022)

Biological target: T1, Human PD-1-His protein (Cat. #10377H08H, Sino Biological) (human, UniProt Q15116 25-167)
T1 construct: Bought protein; also called hPD-1-His; hu PD-1-his; not shown: His tag of the bought protein
Test: SPR (Biacore), antibody captured on Protein A chip, PD-1 in flow
Description: IgG was affinity captured by using a Protein A biosensor chip (Cat. #29127556, GE). Human PD-1 antigen (Cat. #10377H08H, Sino Biological) and Cyno PD-1 antigen (purchased from Sino Biological) flowed across the surface of the chip, and the binding and dissociation curves were obtained by real time detection of PD-1 antibody and antigen PD-1 reaction signals by a Biacore T200 instrument. After the dissociation of each experimental cycle was completed, the biosensor chip was washed and regenerated with 10 mM Glycine-HCl pH 1.5 buffer. The experimental buffer system was 1×HBS-EP buffer solution (Cat #BR-1001-88, GE). After the experiment, GE Biacore T200 Evaluation version 3.0 software was used to fit the data with a (1:1) Langmuir model, and the affinity value was obtained.

T1 sequence (Q15116 25-167 limits assumed): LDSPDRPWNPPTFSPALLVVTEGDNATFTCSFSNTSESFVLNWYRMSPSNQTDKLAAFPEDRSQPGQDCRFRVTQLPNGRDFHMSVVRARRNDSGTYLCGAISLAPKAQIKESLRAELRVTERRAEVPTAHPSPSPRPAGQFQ

Binder	Kd [nM]	koff [s⁻¹]	kon [M⁻¹ s⁻¹]
Hu23-1.IgG4AA (antibody, Full-length IgG4-AA (S228P, F234A, L235A), kappa) heavy: not shown light: DIVMTQTPLSLPVTPGEPASISCRSSQSLVHSNGNTYLEWYLQKPGQSPQLLIYKVSNRFSGVPDRFSGSGSGTDFTLKISRVEAEDVGVYYCFQGSHVPYTFGGGTKVEIKRTVAAPSVFIFPPSDEQLKSGTASVVCLLNNFYPREAKVQWKVDNALQSGNSQESVTEQDSKDSTYSLSSTLTLSKADYEKHKVYACEVTHQGLSSPVTKSFNRGEC	3.2	0.00011	34300
Hu23-3.IgG4AA (antibody, Full-length IgG4-AA, kappa) heavy: not shown light: DIVMTQTPLSLPVTPGEPASISCRSSQSLVHSNGNTYLEWYLQKPGQSPQLLIYKVSNRFSGVPDRFSGSGSGTDFTLKISRVEAEDVGVYYCFQGSHVPYTFGGGTKVEIKRTVAAPSVFIFPPSDEQLKSGTASVVCLLNNFYPREAKVQWKVDNALQSGNSQESVTEQDSKDSTYSLSSTLTLSKADYEKHKVYACEVTHQGLSSPVTKSFNRGEC	5.46	0.00016	29300
Hu23-7.IgG4AA (antibody, Full-length IgG4-AA, kappa) heavy: not shown light: DGVMTQTPLSLPVTPGEPASISCRSSQSLVHSNGNTYLEWYLQKPGQSPQLLIYKVSNRFSGVPDRFSGSGSGTDFTLKISRVEAEDVGVYYCFQGSHVPYTFGGGTKVEIKRTVAAPSVFIFPPSDEQLKSGTASVVCLLNNFYPREAKVQWKVDNALQSGNSQESVTEQDSKDSTYSLSSTLTLSKADYEKHKVYACEVTHQGLSSPVTKSFNRGEC	5.97	0.000166	27700
Hu23-13.IgG4AA (antibody, V domains shown, Full-length IgG4-AA, kappa; also called Hu23LCDR1 (G29A)) VH: EVQLVQSGAEVKKPGSSVKVSCKASGGTFSDYEMHWVRQAPGQGLEWMGLIDPETGGTVYNQKFKDRVTITADKSTSTAYMELSSLRSEDTAVYYCARERFSYYGSTSDWYFDVWGQGTTVTVSS VL: DIVMTQTPLSLPVTPGEPASISCRSSQSLVHSNANTYLEWYLQKPGQSPQLLIYKVSNRFSGVPDRFSGSGSGTDFTLKISRVEAEDVGVYYCFQGSHVPYTFGGGTKVEIKR	2.88	0.000122	42400
Hu23-12.IgG4AA (antibody, V domains shown, Full-length IgG4-AA, kappa; also called Hu23LCDR1 (N28D)) VH: EVQLVQSGAEVKKPGSSVKVSCKASGGTFSDYEMHWVRQAPGQGLEWMGLIDPETGGTVYNQKFKDRVTITADKSTSTAYMELSSLRSEDTAVYYCARERFSYYGSTSDWYFDVWGQGTTVTVSS VL: DIVMTQTPLSLPVTPGEPASISCRSSQSLVHSDGNTYLEWYLQKPGQSPQLLIYKVSNRFSGVPDRFSGSGSGTDFTLKISRVEAEDVGVYYCFQGSHVPYTFGGGTKVEIKR	2.02	0.00011	54500
Hu23-14.IgG4AA (antibody, V domains shown, Full-length IgG4-AA, kappa; also called Hu23LCDR1 (G29V)) VH: EVQLVQSGAEVKKPGSSVKVSCKASGGTFSDYEMHWVRQAPGQGLEWMGLIDPETGGTVYNQKFKDRVTITADKSTSTAYMELSSLRSEDTAVYYCARERFSYYGSTSDWYFDVWGQGTTVTVSS VL: DIVMTQTPLSLPVTPGEPASISCRSSQSLVHSNVNTYLEWYLQKPGQSPQLLIYKVSNRFSGVPDRFSGSGSGTDFTLKISRVEAEDVGVYYCFQGSHVPYTFGGGTKVEIKR	2.22	0.000161	72300
Hu23-6.IgG4AA (antibody, Full-length IgG4-AA, kappa) heavy: not shown light: DGVMTQTPLSLPVTPGEPASISCRSSQSLVHSNGNTYLEWYLQKPGQSPQLLIYKVSNRFSGVPDRFSGSGSGTDFTLKISRVEAEDVGVYYCFQGSHVPYTFGGGTKVEIKRTVAAPSVFIFPPSDEQLKSGTASVVCLLNNFYPREAKVQWKVDNALQSGNSQESVTEQDSKDSTYSLSSTLTLSKADYEKHKVYACEVTHQGLSSPVTKSFNRGEC	5.57	0.000155	27900
Hu23-9.IgG4AA (antibody, V domains shown, Full-length IgG4-AA, kappa; also called Hu23LCDR1 (N28Q)) VH: EVQLVQSGAEVKKPGSSVKVSCKASGGTFSDYEMHWVRQAPGQGLEWMGLIDPETGGTVYNQKFKDRVTITADKSTSTAYMELSSLRSEDTAVYYCARERFSYYGSTSDWYFDVWGQGTTVTVSS VL: DIVMTQTPLSLPVTPGEPASISCRSSQSLVHSQGNTYLEWYLQKPGQSPQLLIYKVSNRFSGVPDRFSGSGSGTDFTLKISRVEAEDVGVYYCFQGSHVPYTFGGGTKVEIKR	2.15	0.000132	61600
Hu23-4.IgG4AA (antibody, Full-length IgG4-AA, kappa) heavy: not shown light: DIVMTQTPLSLPVTPGEPASISCRSSQSLVHSNGNTYLEWYLQKPGQSPQLLIYKVSNRFSGVPDRFSGSGSGTDFTLKISRVEAEDVGVYYCFQGSHVPYTFGGGTKVEIKRTVAAPSVFIFPPSDEQLKSGTASVVCLLNNFYPREAKVQWKVDNALQSGNSQESVTEQDSKDSTYSLSSTLTLSKADYEKHKVYACEVTHQGLSSPVTKSFNRGEC	3.39	0.000144	42400
Hu23-5.IgG4AA (antibody, Full-length IgG4-AA, kappa) heavy: not shown light: DGVMTQTPLSLPVTPGEPASISCRSSQSLVHSNGNTYLEWYLQKPGQSPQLLIYKVSNRFSGVPDRFSGSGSGTDFTLKISRVEAEDVGVYYCFQGSHVPYTFGGGTKVEIKRTVAAPSVFIFPPSDEQLKSGTASVVCLLNNFYPREAKVQWKVDNALQSGNSQESVTEQDSKDSTYSLSSTLTLSKADYEKHKVYACEVTHQGLSSPVTKSFNRGEC	3.82	0.000114	29900
Hu23-2.IgG4AA (antibody, Full-length IgG4-AA, kappa) heavy: not shown light: DIVMTQTPLSLPVTPGEPASISCRSSQSLVHSNGNTYLEWYLQKPGQSPQLLIYKVSNRFSGVPDRFSGSGSGTDFTLKISRVEAEDVGVYYCFQGSHVPYTFGGGTKVEIKRTVAAPSVFIFPPSDEQLKSGTASVVCLLNNFYPREAKVQWKVDNALQSGNSQESVTEQDSKDSTYSLSSTLTLSKADYEKHKVYACEVTHQGLSSPVTKSFNRGEC	5.86	0.000161	27400
Hu23-8.IgG4AA (antibody, Full-length IgG4-AA, kappa) heavy: not shown light: DGVMTQTPLSLPVTPGEPASISCRSSQSLVHSNGNTYLEWYLQKPGQSPQLLIYKVSNRFSGVPDRFSGSGSGTDFTLKISRVEAEDVGVYYCFQGSHVPYTFGGGTKVEIKRTVAAPSVFIFPPSDEQLKSGTASVVCLLNNFYPREAKVQWKVDNALQSGNSQESVTEQDSKDSTYSLSSTLTLSKADYEKHKVYACEVTHQGLSSPVTKSFNRGEC	3.56	0.000147	41100
Hu23-10.IgG4AA (antibody, V domains shown, Full-length IgG4-AA, kappa; also called Hu23LCDR1 (N28L)) VH: EVQLVQSGAEVKKPGSSVKVSCKASGGTFSDYEMHWVRQAPGQGLEWMGLIDPETGGTVYNQKFKDRVTITADKSTSTAYMELSSLRSEDTAVYYCARERFSYYGSTSDWYFDVWGQGTTVTVSS VL: DIVMTQTPLSLPVTPGEPASISCRSSQSLVHSLGNTYLEWYLQKPGQSPQLLIYKVSNRFSGVPDRFSGSGSGTDFTLKISRVEAEDVGVYYCFQGSHVPYTFGGGTKVEIKR	2.77	0.000153	55100
Hu32a-29.IgG4AA (antibody, V domains shown, Full-length IgG4-AA, kappa) VH: EVQLVQSGAEVKKPGSSVKVSCKASGFTFSDYEIHWVRQAPGQGLEWMGLFDPETGGIVYNQKFKGRVTLTADKSTSTAYMELSSLRSEDTAVYYCTREGYNRDWYFDVWGQGTTVTVSS VL: DIVMTQTPLSLPVTPGEPASISCRSSQSLVHSTGNTYLEWYLQKPGQSPQLLIYKVSNRFSGVPDRFSGSGSGTDFTLKISRVEAEDVGVYYCFQGSHVPYTFGGGTKVEIKR	7.86	0.00062	78900
Hu32a-71.IgG4AA (antibody, V domains shown, Full-length IgG4-AA, kappa) VH: EVQLVQSGAEVKKPGSSVKVSCKASDFTFTDYEIHWVRQAPGQGLEWIGLFDPETGGIVYNQKFKGRATLTADKSTSTAYMEFSSLRSEDTAVYYCTREGYNRDWYFDVWGQGTTVTVSS VL: DIVMTQTPLSLPVTPGEPASISCRSSQSLVHSTGNTYLEWYLQKPGQSPQLLIYKVSNRFSGVPDRFSGSGSGTDFTLKISRVEAEDVGVYYCFQGSHVPYTFGGGTKVEIKR	4.61	0.000396	86000
Hu32a-43.IgG4AA (antibody, V domains shown, Full-length IgG4-AA, kappa) VH: EVQLVQSGAEVKKPGSSVKVSCKASDFTFSDYEIHWVRQAPGQGLEWMGLFDPETGGIVYNQKFKGRVTLTADKSTSTAYMELSSLRSEDTAVYYCTREGYNRDWYFDVWGQGTTVTVSS VL: DIVMTQTPLSLPVTPGEPASISCRSSQSLVHSTGNTYLEWYLQKPGQSPQLLIYKVSNRFSGVPDRFSGSGSGTDFTLKISRVEAEDVGVYYCFQGSHVPYTFGGGTKVEIKR	8.16	0.000685	83900
Hu32a-57.IgG4AA (antibody, V domains shown, Full-length IgG4-AA, kappa) VH: EVQLVQSGAEVKKPGSSVKVSCKASGFTFSDYEIHWVRQAPGQGLEWIGLFDPETGGIVYNQKFKGRATLTADKSTSTAYMEFSSLRSEDTAVYYCTREGYNRDWYFDVWGQGTTVTVSS VL: DIVMTQTPLSLPVTPGEPASISCRSSQSLVHSTGNTYLEWYLQKPGQSPQLLIYKVSNRFSGVPDRFSGSGSGTDFTLKISRVEAEDVGVYYCFQGSHVPYTFGGGTKVEIKR	7.85	0.000624	79400
Hu32a-15.IgG4AA (antibody, V domains shown, Full-length IgG4-AA, kappa) VH: EVQLVQSGAEVKKPGSSVKVSCKASGGTFSDYEIHWVRQAPGQGLEWMGLFDPETGGIVYNQKFKGRVTITADKSTSTAYMELSSLRSEDTAVYYCAREGYNRDWYFDVWGQGTTVTVSS VL: DIVMTQTPLSLPVTPGEPASISCRSSQSLVHSTGNTYLEWYLQKPGQSPQLLIYKVSNRFSGVPDRFSGSGSGTDFTLKISRVEAEDVGVYYCFQGSHVPYTFGGGTKVEIKR	51.4	0.00252	48900
murine antibody M23 (antibody, V domains shown) VH: QVQLQQSGAELVRPGASVTLSCKASGYTFTDYEMHWVKQTPIHGLEWIGLIDPETGGTVYNQKFKDKTILTADKSSSTAYMEFRSLTSEDSAVYHCTRERFSYYGSTSDWYFDVWGTGTTVTVSS VL: DGLMTQTPLSLPVSLGDHASISCRSSQSLVHSNGNTYLEWYLQKPGQSPKLLIYKVSNRFSGVPDRFSGSGSGTDFTLKISRVEAEDLGIYYCFQGSHVPYTFGGGTKLEIK	2.89	0.000132	45700
